# Patent publication US5286714
# Target: thrombin
# Assay: Ki(app.) from kinetics of thrombin inhibition with chromogenic substrate D-HHT-Gly-Arg-pNA (Stone and Hofsteenge), 25° C.
row,Molecule,Ki
1,"[Leu^1,Thr^2] desulfatohirudin",0.14 nM
2,"[Ile^1,Thr^2] desulfatohirudin",0.61 nM
3,"[Ala^1,Thr^2] desulfatohirudin",0.2 nM
4,"[Ala^1,Thr^2,Glu^33,Glu^53] desulfatohirudin (protein) ATYTDCTESGQNLCLCEGSNVCGQGNKCILGSDGEKNQCVTGEGTPKPQSHNEGDFEEIPEEYLQ",0.37 nM
5,"[Ala^1,Thr^2,Gln^52,Glu^53,Ala^54] desulfatohirudin (protein) ATYTDCTESGQNLCLCEGSNVCGQGNKCILGSDGEKNQCVTGEGTPKPQSHQEADFEEIPEEYLQ",0.22 nM
6,"[Ala^1,Thr^2,Ala^54] desulfatohirudin (protein) ATYTDCTESGQNLCLCEGSNVCGQGNKCILGSDGEKNQCVTGEGTPKPQSHNDADFEEIPEEYLQ",0.27 nM
7,"[Ala^1,Thr^2,Glu^33,Gln^52,Glu^53,Glu^55]-desulfatohirudin (protein) ATYTDCTESGQNLCLCEGSNVCGQGNKCILGSEGEKNQCVTGEGTPKPQSHQEGEFEEIPEEYLQ",0.3 nM
8,"[Ala^1,Thr^2,Glu^33,Gln^52,Glu^53,Ala^54]-desulfatohirudin (protein) ATYTDCTESGQNLCLCEGSNVCGQGNKCILGSEGEKNQCVTGEGTPKPQSHQEADFEEIPEEYLQ",0.31 nM
9,"[Ala^1,Thr^2,Glu^33] desulfatohirudin (protein) ATYTDCTESGQNLCLCEGSNVCGQGNKCILGSEGEKNQCVTGEGTPKPQSHNDGDFEEIPEEYLQ",0.16 nM
10,"[Ala^1,Thr^2,Glu^33,Ala^54] desulfatohirudin (protein) ATYTDCTESGQNLCLCEGSNVCGQGNKCILGSEGEKNQCVTGEGTPKPQSHNDADFEEIPEEYLQ",0.35 nM
11,"[Ala^1,Thr^2,Glu^53] desulfatohirudin (protein) ATYTDCTESGQNLCLCEGSNVCGQGNKCILGSDGEKNQCVTGEGTPKPQSHNEGDFEEIPEEYLQ",0.38 nM
12,"[Ala^1,Thr^2,Gln^52,Glu^53,Glu^55] desulfatohirudin (protein) ATYTDCTESGQNLCLCEGSNVCGQGNKCILGSDGEKNQCVTGEGTPKPQSHQEGEFEEIPEEYLQ",0.19 nM
